Source: patent US20030180744A1

Experiments:
[1] = target: hKGF receptor on the surface of PC-3 prostatic carcinoma cells (UniProt P21802); assay: saturation binding of 125I-hKGF on PC-3 cells, Scatchard analysis
[2] = target: hKGF receptor on the surface of PC-3 prostatic carcinoma cells (UniProt P21802); assay: competition of unlabeled hKGF with 125I-hKGF for binding to PC-3 cells
[3] = target: hKGF receptor on the surface of PC-3 prostatic carcinoma cells (UniProt P21802); assay: value used to calculate Ki from IC50 in the PC-3 cell assay (FIG. 12 legend)
[4] = target: hKGF receptor on the surface of PC-3 prostatic carcinoma cells (UniProt P21802); assay: competition of unlabeled hKGF with 125I-hKGF for binding to PC-3 cells, full competition curve
[5] = target: human KGF receptor on transfected NIH3T3 cells (NIH3T3/FGFR-2) (human) (UniProt P21802); assay: competition of unlabeled hKGF with 125I-hKGF for binding to NIH3T3/FGFR-2 cells, with 1 ug/ml heparin

- Kd [1]: 100 to 200 pM
- IC50 [2]: 70000 pM
- Kd [3]: 150 pM
- Ki [4]: 7700 pM
- Ki [5]: 34 pM
B1: Recombinant human Keratinocyte Growth Factor (hKGF) (ligand, UniProt P21781 32-194, looked up)
chain: CNDMTPEQMATNVNCSSPERHTRSYDYMEGGDIRVRRLFCRTQWYLRIDKRGKVKGTQEMKNNYNIMEIRTVAVGIVAIKGVESEFYLAMNKEGKLYAKKECNEDCNFKELILENHYNTYASAKWTHNGGEMFVALNQKGIPVRGKKTKKEQKTAHFLPMAIT
